Values quoted from earlier work in publication PMC7308888, “Development of a cell-free split-luciferase biochemical assay as a tool for screening for inhibitors of challenging protein-protein interaction targets” (Wellcome Open Research, 2020).

Biological target: RAF (Homo sapiens) (UniProt P04049)

Kd: 20 nM
Substance: RAS (from UniProt P01116)
